In patent US7598343B1, “Pharmaceutical formulations of bivalirudin and processes of making the same” (The Medicines Company, priority 2008, dated 2009):

How the values were obtained:
Format in all cases: physicochemical
[1] = Asp^9-bivalirudin level by HPLC after constant-rate addition of pH-adjusting solution under high shear mixing (Example 3)
Protocol: The bivalirudin solution (675 mL) comprised 64.4 g dissolved in 2.64% w/w mannitol solution. The bivalirudin solution was divided in half for evaluation of adding the pH-adjusting solution at two different mixing rates. The bivalirudin solution was placed in a vessel with a high shear mixer.
The pH-adjusting solution (131.2 mL) comprised 0.5 N sodium hydroxide in a 2.64% w/w mannitol solution. The pH-adjusting solution was loaded into a burette, which was connected on the bottom to a tube with a hose. The tube was positioned at the base of the high shear mixer blade inside the mixing vessel containing the bivalirudin solution. A clamp was used to restrict the pH-adjusting solution from passing through the hose.
The speed of the high shear mixer (Silverson Laboratory Emulsifier Model L4RT) was set to either 1500 rpm or 3000 rpm. The clamp on the hose was removed and the pH-adjusting solution was then added to the bivalirudin solution at a controlled, constant rate of approximately 2 L/min.
The volume of the compounding solution was then adjusted to a final volume of 562.5 mL.
For the compounding solution mixed at 1500 rpm, after the pH-adjusting solution was added, the mixing speed was increased to approximately 4500 rpm for a short period of time to allow faster and complete dissolution, and then reduced to 1500 rpm until the solution was completely dissolved. After complete dissolution, the resulting compounding solution was moved from the vessel to a beaker which contained a stir bar. The solution was adjusted to a target pH of 5.3 using 19 mL of the pH-adjusting solution, and then the volume was adjusted to a final volume of 562.5 mL.
For both mixing conditions, the pH was monitored throughout the addition of the pH-adjusting solution to the bivalirudin solution to form the compounding solution. The level of Asp^9-bivalirudin was measured by HPLC before (baseline) addition of the pH-adjusting solution, after the addition of the pH-adjusting solution (measurement #2), and after the volume of the compounding solution was adjusted to mark (measurement #3).

[2] = Asp^9-bivalirudin level by HPLC in compounding solution under high shear mixing (Example 1, third part)
From the text: In a third part of the study, the final compounding solution from the first part of the study was placed into a recirculation vessel for use in a recirculation water bath (Precision Model 181) to be subjected to high shear mixing using a Silverson Laboratory Emulsifier (Model L4RT). Prior to this study, it was thought that bivalirudin solutions were unstable to both heat and shear, thus requiring extreme care in handling bivalirudin during the compounding process. Before subjecting the compounding solution to high shear mixing, the level of Asp^9-bivalirudin was recorded (measurement #1). The compounding solution was then subjected to high shear mixing at ˜6000 rpm for 30 minutes without use of the recirculation water bath; the temperature of the compounding solution due to the high shear mixing rose to about 36° C. A sample was then measured for Asp^9-bivalirudin level (measurement #2). The mixing speed was then slowed to 5000 rpm for 120 minutes and the temperature was measured at about 33° C., and another sample was analyzed for Asp^9-bivalirudin level (measurement #3).

[3] = Isoelectric point of bivalirudin
[4] = Asp^9-bivalirudin level by HPLC after adding pH-adjusting solution in two portions of 75% and 25% at 400 rpm (Example 2)
Protocol: The bivalirudin solution (˜760 mL) comprised bivalirudin at a concentration of 0.050 mg/ml dissolved in a 2.64% w/w mannitol solution. The pH-adjusting solution (233 mL) comprised 0.5 N sodium hydroxide in a 2.64% w/w mannitol solution. The experiment was conducted at a temperature of about 8° C.
The pH-adjusting solution was divided into a 75% portion and a 25% portion of the total pH-adjusting solution volume. First, the pH and Asp^9-bivalirudin levels were measured before addition of the pH-adjusting solution (baseline). During addition of the 75% portion, at about 400 rpm, the pH was monitored during mixing until the pH achieved a constant level at which time the Asp^9-bivalirudin level was also measured (measurement #1). A portion of this material was allowed to sit for about 6.5 hours and the amount of Asp^9-bivalirudin was again measured (measurement #2). The 25% portion of the pH-adjusting solution was added about 30 minutes after the last base addition and mixing was continued at 400 rpm. The pH was initially recorded and then both the pH and Asp^9-bivalirudin levels were measured after about 30 minutes of mixing (measurement #3). The pH and Asp^9-bivalirudin levels were again recorded after mixing at 400 rpm overnight (measurement #4).

[5] = Asp^9-bivalirudin level by HPLC after adding pH-adjusting solution in four equal portions with inefficient mixing (Example 1, first part)
Protocol: In a first part of the study, the bivalirudin solution (˜600 mL) comprised bivalirudin at a concentration of ˜0.1 mg/mL in a 2.64% w/w mannitol solution. The pH-adjusting solution (233 mL) comprised 0.5 N sodium hydroxide in a 2.64% w/w mannitol solution. Asp^9-bivalirudin levels were measured throughout the experiment by high-performance liquid chromatography (HPLC). pH was also measured through the experiment. One measurement of Asp^9-bivalirudin was taken immediately after the bivalirudin solution was formed (baseline).
The pH-adjusting solution was added to the bivalirudin solution in four equal portions over the total duration of about 1 hour at a temperature of 5-8° C., each addition separated by about 15 minutes. The resulting compounding solution was mixed at between 600 rpm and 700 rpm throughout the addition of the first and second portions of the pH-adjusting solution, and the pH and Asp^9-bivalirudin levels were recorded (measurements #1 and #2). During the addition of the third portion, the mixer was turned off and the pH and Asp^9-bivalirudin levels were recorded (measurement #3A). The mixture was then subjected to high shear mixing at 4000 rpm for 30 seconds and the pH and Asp^9-bivalirudin levels were recorded (measurement #3B). During addition of the fourth portion, the mixer was turned off and the levels of pH and Asp^9-bivaluridin were recorded (measurement #4A). Mixing was then continued for, at least, two minutes at 5300 rpm and the pH was and Asp^9-bilvairudun levels were recorded (measurement #4B). The mixing rate was decreased to about 3600 rpm for 1 hour and the pH and Asp^9-bivalirudin levels were recorded (measurement #5). A portion of the material from measurement #4a was allowed to stand for 7 hours and the pH and Asp^9-bivalirudin levels were recorded (measurement #6).

[6] = Asp^9-bivalirudin level by HPLC in portions of compounding solution adjusted to pH 8, 9, 10, 12 over time (Example 1, second part)
Protocol: In a second part of the study, four portions of the final compounding solution from the first part of the study were removed. The pH levels of these portions were adjusted to 8, 9, 10, and 12, respectively, using additional pH-adjusting solution and high shear mixing on a Silverson Laboratory Emulsifier (Model L4RT).
Samples of the portion of the compounding solution adjusted to pH 8 were taken immediately, and after about 80 minutes, 300 minutes, and 370 minutes. Samples of the portion of the compounding solution adjusted to pH 9 were taken immediately, after about 80 minutes, and 300 minutes. Further, samples of the portion of the compounding solution adjusted to pH 10 and 12 were taken immediately, after about 80 minutes and 170 minutes.

**Q.** What does the source list for “D-Phenylalanyl-L-Prolyl-L-Arginyl-L-Prolyl-Glycyl-Glycyl-Glycyl-Glycyl-L-Asparagyl-Glycyl-L-Aspartyl-L-Phenylalanyl-L-Glutamyl-L-Glutamyl-L-Isoleucyl-L-Prolyl-L-Glutamyl-L-Glutamyl-L-Tyrosyl-L-Leucine trifluoroacetate (salt) hydrate [bivalirudin]”?
**A.** % Asp^9-bivalirudin ([1]; 1500 rpm, #1 after addition of pH-adjusting solution, pH ~6.0): 0.31%; % Asp^9-bivalirudin ([1]; 1500 rpm, #2 after compounding solution was adjusted to mark, pH 5.3): 0.34%; % Asp^9-bivalirudin ([1]; 1500 rpm, Baseline before addition of pH-adjusting solution, pH ~2.5): 0.38%; % Asp^9-bivalirudin ([1]; 3000 rpm, #1 after addition of pH-adjusting solution, pH ~5.6): 0.41%; % Asp^9-bivalirudin ([1]; 3000 rpm, #2 after compounding solution was adjusted to mark, pH 5.25): 0.40%; % Asp^9-bivalirudin ([1]; 3000 rpm, Baseline before addition of pH-adjusting solution, pH ~2.5): 0.43%; degradation by high shear mixing ([1]; high shear mixing even up to 4500 rpm): not susceptible to degradation; % Asp^9-bivalirudin ([2]; #1: before high shear mixing, RT ~20° C.): 0.71%; % Asp^9-bivalirudin ([2]; #2: after high shear mixing at 6000 rpm for 30 minutes, 36° C.): 0.71%; % Asp^9-bivalirudin ([2]; #3: after mixing rate was reduced to 5000 rpm for 120 minutes, 33° C.): 0.75%; stability to high shear mixing conditions ([2]; high shear mixing 6000/5000 rpm): stable; isoelectric point [3]: about 3.6; % Asp^9-bivalirudin ([4]; #1: after addition of 75% portion, pH peak at 12.2 then dropped to 8-9): 0.44%; % Asp^9-bivalirudin ([4]; #2: same as #1 but after sitting for 6.5 hours with no stirring): 0.88%; % Asp^9-bivalirudin ([4]; #3: remaining 25% added, pH 12.4 initially then 7.7 after 30 minutes, taken from the bottom): 2.19%; % Asp^9-bivalirudin ([4]; #3: remaining 25% added, pH 12.4 initially then 7.7 after 30 minutes, taken from the top): 1.85%; % Asp^9-bivalirudin ([4]; #4: same as #3 but after mixing overnight, pH 5.0): 1.57%; % Asp^9-bivalirudin ([4]; Baseline: after bivalirudin solution was formed, pH 1.71): 0.42%; % Asp^9-bivalirudin ([5]; #2: after addition of second portion of pH-adjusting solution, pH 4.2): 0.43%; % Asp^9-bivalirudin ([5]; #3A: after addition of third portion with no mixing, pH ~6 to 8): 0.45%; % Asp^9-bivalirudin ([5]; #3B: same as #3A but after mixing (4000 rpm, 30 seconds), pH 5.0): 0.74%; % Asp^9-bivalirudin ([5]; #4A: after fourth portion, sat for 10 minutes with no mixing, pH ~8.5 to 9): 0.60%; % Asp^9-bivalirudin ([5]; #4B: same as #4A but after mixing, pH 6.0 to 6.5): 0.57%; % Asp^9-bivalirudin ([5]; #5: same as #4A but after high speed mixing for 1 hour, pH 5.0): 0.71%; % Asp^9-bivalirudin ([5]; #6: same as #4A but 7 hours later with no mixing, pH ~8.5 to 9): 2.05%; % Asp^9-bivalirudin ([5]; Baseline: after bivalirudin solution was formed, pH ~2.5): ~0.42%; % Asp^9-bivalirudin ([6]; Baseline, pH 5): 0.71%; % Asp^9-bivalirudin ([6]; pH 8, after pH was adjusted): 0.71%; % Asp^9-bivalirudin ([6]; pH 8, after ~80 minutes): 0.77%; % Asp^9-bivalirudin ([6]; pH 8, after ~300 minutes): 1.11%; % Asp^9-bivalirudin ([6]; pH 8, after ~370 minutes): 1.26%; % Asp^9-bivalirudin ([6]; pH 9, after pH was adjusted): 0.84%; % Asp^9-bivalirudin ([6]; pH 9, after ~80 minutes): 1.07%; % Asp^9-bivalirudin ([6]; pH 9, after ~300 minutes): 1.84%; % Asp^9-bivalirudin ([6]; pH 10, after pH was adjusted): 1.24%; % Asp^9-bivalirudin ([6]; pH 10, after ~80 minutes): 2.08%; % Asp^9-bivalirudin ([6]; pH 10, after ~170 minutes): 2.59%; % Asp^9-bivalirudin ([6]; pH 12, after pH was adjusted): 4.71%; % Asp^9-bivalirudin ([6]; pH 12, after ~80 minutes): 8.20%; % Asp^9-bivalirudin ([6]; pH 12, after ~170 minutes): 10.95%
